Measurements reported in the supplement of paper PMC9170038.

System: MS2 coat protein
Assay: apparent KD of MS2 coat protein; designed switch direction (-1 OFF switch, 1 ON switch): 1; higher = weaker reporter binding
In short: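 Each step of the titration lasted 0.8–1.5 h at the lowest concentration and 10–20 min at the highest. The protein, SNAP-549-labelled MS2 coat protein, went from 0.7 or 1.5 nM doubling to 3 µM over RNA switches transcribed on Illumina chips by stalled E. coli RNA polymerase. Normalised cluster fluorescence was curve-fitted, and the per-design median over clusters is given as apparent KD.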

[1] = input ligand: microRNA oligo, concentration not stated
[2] = Eterna round: R95, input ligand: microRNA oligo, concentration not stated
[3] = Eterna round: R95, input ligand: FMN 200 uM
[4] = Eterna round: R95, input ligand: none

GGAUGAUAGACAGGAUAUUGAUUGUAAUUAUGUCAAGAAGGGUCUUUGAUUUAAACGACCAGUUACAUGAGGAUCACCCAUGUU [JR_SSNG1_Sub029] (Eterna round: R96, puzzle: Same State NG 1)
apparent KD of MS2 coat protein [1]: 24.1 nM

GAUUCACAUGAGGAUCACCCAUGUCGUUUAAUGGGAGGAUAUACGUGGACCGUAGUCCGCGUAGAAGGCCUAAUUG [Mat - Same State 1 - Mod of JL - D24] (puzzle: Same State 1)
apparent KD of MS2 coat protein [2]: 74.4 nM

GCUCGAAUCAAAACCAACAUGAGGAUCACCCAUGUAUGUUGGUAGGAUAUCGUUUGUAAAACAAACGAGAAGGGCCAAACGAGC [SameState NG3 #4] (Eterna round: R96, puzzle: Same State NG 3)
apparent KD of MS2 coat protein (input ligand: FMN 200 uM): 53 nM | apparent KD of MS2 coat protein [1]: 93.3 nM | apparent KD of MS2 coat protein (input ligand: none): 118 nM

GUAAAACAUGAGGAUCACCCAUGUAAUAAUAUGGGAGGAUAUCAGAUUUAAUUUAAUUUAUGAGAAGGCCUAAAGU [Mat - Same State 1 - Mod of Eli - D63] (puzzle: Same State 1)
apparent KD of MS2 coat protein [3]: 94.4 nM | apparent KD of MS2 coat protein [2]: 16.4 nM | apparent KD of MS2 coat protein [4]: 628 nM

UUUGAAUUGCAAGGAUAUCUUAUUUAGAUUUUAAGAGAAGGUGCUUUAUAGUUACAUGAGGAUCACCCAUGUAUUUCUUUUUAU [JR_SSNG1_Sub062] (Eterna round: R96, puzzle: Same State NG 1)
apparent KD of MS2 coat protein [1]: 18.5 nM

GCCAUCGAGUGAGGAUAUGGCACCGUUUCGGUGCCAGAAGGCAUGUCAAUUGACAUGAGGAUCACCCAUGUAUUAUCGAUGGCA [JL Fiskers NG1ss - 33 mod 4] (Eterna round: R96, puzzle: Same State NG 1)
apparent KD of MS2 coat protein (input ligand: FMN 200 uM): 75.4 nM | apparent KD of MS2 coat protein [1]: 556 nM | apparent KD of MS2 coat protein (input ligand: none): 835 nM

UGGAGACAUCAAGGAUAUGCUACCGUUUCGGUAGCAGAAGGUGAUCACAUGAGGAUCACCCAUGUAUGCAUGCGUGAGCGUGCU [JL SSNG1 3.53] (Eterna round: R96, puzzle: Same State NG 1)
apparent KD of MS2 coat protein (input ligand: FMN 200 uM): 779 nM | apparent KD of MS2 coat protein [1]: 32.7 nM | apparent KD of MS2 coat protein (input ligand: none): 35.4 nM

UUGCGGGCUUGAGGAUAUUGAGUACAUAUGUUUAACAUGAGGAUCACCCAUGUGGGUUGCGGUAUCGAGAAGGUAACUUCCUGC [salish99_SSNG2_r04_811] (Eterna round: R96, puzzle: Same State NG 2)
apparent KD of MS2 coat protein (input ligand: FMN 200 uM): 100 nM | apparent KD of MS2 coat protein [1]: 65.3 nM | apparent KD of MS2 coat protein (input ligand: none): 91.1 nM

AUUGGGUAACGAGGAUAUCGUUUUUGUUUUCUUCGAGAAGGCGUUAUAGUUUAUUUCUAUUGUUACAUGAGGAUCACCCAUGUU [JR_SSNG1_Sub054] (Eterna round: R96, puzzle: Same State NG 1)
apparent KD of MS2 coat protein (input ligand: FMN 200 uM): 15.2 nM | apparent KD of MS2 coat protein [1]: 16.5 nM | apparent KD of MS2 coat protein (input ligand: none): 24.1 nM

AAACUACGUGCACAGGAUAUACGUUCCUAUACAUGAGGAUCACCCAUGUACCAACCGAAAAGGAAGUAGAAGGGUGUCCGUAAAC [Esardixequ] (puzzle: Same State 2)
apparent KD of MS2 coat protein [3]: 19.2 nM | apparent KD of MS2 coat protein [2]: 51.6 nM | apparent KD of MS2 coat protein [4]: 57.2 nM

GGAGCCAAGGCAGGAUAUUCAUUUAAAUAAACAUGAGGAUCACCCAUGUAGGCCAGAAGGCCUUGGGAGAAGGGCCAUGGCUCG [Xeonanis - 13 mod7] (Eterna round: R96, puzzle: Same State NG 2)
apparent KD of MS2 coat protein (input ligand: FMN 200 uM): 17.7 nM | apparent KD of MS2 coat protein [1]: 72.8 nM | apparent KD of MS2 coat protein (input ligand: none): 88.1 nM

GGUCGGACUCACAUGAGGAUCACCCAUGUUCCGGAAACGGGACAGGAUAUCUGUCCGAAAAGGUCAGAGAAGGGUCUACCGACC [Fiskers NG3ss - 54] (Eterna round: R96, puzzle: Same State NG 3)
apparent KD of MS2 coat protein (input ligand: FMN 200 uM): 353 nM | apparent KD of MS2 coat protein [1]: 126 nM | apparent KD of MS2 coat protein (input ligand: none): 289 nM
